Laboratory results taken from patent publication US20240200091A1, “USE OF PROTOPORPHYRINOGEN OXIDASE” (BEIJING DABEINONG BIOTECHNOLOGY CO., LTD., priority 2021, published 2024).

Key:
Assay type in all cases: in vivo
Settings in all cases: 7 DAT, number of plants of 24 per genotype, grades
[1] = system: Arabidopsis thaliana T1 plants; experiment: sulfentrazone tolerance of transgenic Arabidopsis thaliana T1 plants (spray, grade of pesticide damage)
Method in brief: (§1)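 Saflufenacil (25, 100 g ai/ha), sulfentrazone (450, 900), flumioxazin (60, 240) and oxyfluorfen (180, 720) or water were sprayed on 18-day-old PPO-transgenic T1 plants, control-vector and wild-type plants, 24 per genotype. Seven days later, damage was graded: 0 as in water controls, 1 <10% injured leaf area, 3 100%.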

[2] = system: Arabidopsis thaliana T1 plants; experiment: flumioxazin tolerance of transgenic Arabidopsis thaliana T1 plants (spray, grade of pesticide damage)
Method in brief: as §1

[3] = system: Arabidopsis thaliana T1 plants; experiment: oxyfluorfen tolerance of transgenic Arabidopsis thaliana T1 plants (spray, grade of pesticide damage)
Method in brief: as §1

[4] = system: Arabidopsis thaliana T1 plants; experiment: saflufenacil tolerance of transgenic Arabidopsis thaliana T1 plants (spray, grade of pesticide damage)
Method in brief: as §1

B1: PPO10A: nucleotide sequence encoding microbial protoporphyrinogen oxidase PPO10 (SEQ ID NO:10), Arabidopsis thaliana/soybean common codon usage bias (nucleic acid)
DNA: ATGAAAGCTCTCTTTCTGTACTCGTCTCAAGAAGGACAGACAAGGAAGATTATAGAGAGAATCGCCCAGCAAATGCCGGAGTATGATTGTGATATTCAAGATCTTCATCAAGTAAGCGACATTGCATTAGCTGATTATGACAAGATCCTAATAGGGGCCAGTATCCGATATGGAAGATTGAATGATAAACTATATCAATTTATTCAGAGATATCTTCCCGATCTCCGCTCCAACAAAGCAGCTTTCTTCTGCGTCAATCTTACGGCGAGAAAGGAAGAACAAGGAAAAGACACCCCAGAAGGTTCTGTTTACATCCAGACTTTCTTGAAGAAATCACCATGGCAACCTGAGAGGATTGCAGTGTTTGCTGGTGCTCTTTACTATCCTCGTTACAGATGGTTTGATAAGATGATGATTCGGTTAATAATGACTTTGACCGGCGGTGAAACTGATACATCAAAAGAAGTTGAGTACACAAATTGGAACAAGGTTTCTCAGTTTGCGGAGCAGTTCCGTAACTGGTGA
modifications: The nucleotide sequence of PPO10A
For B1, the “The grade of pesticide: grade 0” value ([1]; sulfentrazone 450 g ai/ha (1×)) was 24, the “The grade of pesticide: grade 1” value ([1]; sulfentrazone 450 g ai/ha (1×)) was 0 and the “The grade of pesticide: grade 2” value ([1]; sulfentrazone 450 g ai/ha (1×)) was 0. For the same molecule, the “The grade of pesticide: grade 3” value ([1]; sulfentrazone 450 g ai/ha (1×)) was 0, the “The grade of pesticide: grade 0” value ([1]; sulfentrazone 900 g ai/ha (2×)) was 20 and the “The grade of pesticide: grade 1” value ([1]; sulfentrazone 900 g ai/ha (2×)) was 4. For the same molecule, the “The grade of pesticide: grade 2” value ([1]; sulfentrazone 900 g ai/ha (2×)) was 0, the “The grade of pesticide: grade 3” value ([1]; sulfentrazone 900 g ai/ha (2×)) was 0 and the “The grade of pesticide damage/plant: grade 0” value ([2]; flumioxazin 60 g ai/ha (1×)) was 24 plant. For the same molecule, the “The grade of pesticide damage/plant: grade 1” value ([2]; flumioxazin 60 g ai/ha (1×)) was 0 plant, the “The grade of pesticide damage/plant: grade 2” value ([2]; flumioxazin 60 g ai/ha (1×)) was 0 plant and the “The grade of pesticide damage/plant: grade 3” value ([2]; flumioxazin 60 g ai/ha (1×)) was 0 plant. For the same molecule, the “The grade of pesticide damage/plant: grade 0” value ([2]; flumioxazin 240 g ai/ha (4×)) was 24 plant, the “The grade of pesticide damage/plant: grade 1” value ([2]; flumioxazin 240 g ai/ha (4×)) was 0 plant and the “The grade of pesticide damage/plant: grade 2” value ([2]; flumioxazin 240 g ai/ha (4×)) was 0 plant. The “The grade of pesticide damage/plant: grade 3” value ([2]; flumioxazin 240 g ai/ha (4×)) was 0 plant, the “The grade of pesticide damage/plant: grade 0” value ([3]; oxyfluorfen 180 g ai/ha (1×)) was 24 plant and the “The grade of pesticide damage/plant: grade 1” value ([3]; oxyfluorfen 180 g ai/ha (1×)) was 0 plant. For the same molecule, the “The grade of pesticide damage/plant: grade 2” value ([3]; oxyfluorfen 180 g ai/ha (1×)) was 0 plant, the “The grade of pesticide damage/plant: grade 3” value ([3]; oxyfluorfen 180 g ai/ha (1×)) was 0 plant and the “The grade of pesticide damage/plant: grade 0” value ([3]; oxyfluorfen 720 g ai/ha (4×)) was 20 plant. For the same molecule, the “The grade of pesticide damage/plant: grade 1” value ([3]; oxyfluorfen 720 g ai/ha (4×)) was 4 plant, the “The grade of pesticide damage/plant: grade 2” value ([3]; oxyfluorfen 720 g ai/ha (4×)) was 0 plant and the “The grade of pesticide damage/plant: grade 3” value ([3]; oxyfluorfen 720 g ai/ha (4×)) was 0 plant. The “The grade of pesticide damage/plant: grade 0” value ([4]; saflufenacil 25 g ai/ha (1×)) was 24 plant, the “The grade of pesticide damage/plant: grade 1” value ([4]; saflufenacil 25 g ai/ha (1×)) was 0 plant and the “The grade of pesticide damage/plant: grade 2” value ([4]; saflufenacil 25 g ai/ha (1×)) was 0 plant. The “The grade of pesticide damage/plant: grade 3” value ([4]; saflufenacil 25 g ai/ha (1×)) was 0 plant, the “The grade of pesticide damage/plant: grade 0” value ([4]; saflufenacil 100 g ai/ha (4×)) was 0 plant and the “The grade of pesticide damage/plant: grade 1” value ([4]; saflufenacil 100 g ai/ha (4×)) was 24 plant. The “The grade of pesticide damage/plant: grade 2” value ([4]; saflufenacil 100 g ai/ha (4×)) was 0 plant and the “The grade of pesticide damage/plant: grade 3” value ([4]; saflufenacil 100 g ai/ha (4×)) was 0 plant.
